The values below are quoted from earlier work in PMC12672491.

Data set [1] has as its target importin-α3 (Homo sapiens) (UniProt O00629).
The target is the same in data set [2]. This is another data set of the same source.

Where two headings read alike, the source gives them in different places.

Sequence of UniProt O00629 (O00629 2-521): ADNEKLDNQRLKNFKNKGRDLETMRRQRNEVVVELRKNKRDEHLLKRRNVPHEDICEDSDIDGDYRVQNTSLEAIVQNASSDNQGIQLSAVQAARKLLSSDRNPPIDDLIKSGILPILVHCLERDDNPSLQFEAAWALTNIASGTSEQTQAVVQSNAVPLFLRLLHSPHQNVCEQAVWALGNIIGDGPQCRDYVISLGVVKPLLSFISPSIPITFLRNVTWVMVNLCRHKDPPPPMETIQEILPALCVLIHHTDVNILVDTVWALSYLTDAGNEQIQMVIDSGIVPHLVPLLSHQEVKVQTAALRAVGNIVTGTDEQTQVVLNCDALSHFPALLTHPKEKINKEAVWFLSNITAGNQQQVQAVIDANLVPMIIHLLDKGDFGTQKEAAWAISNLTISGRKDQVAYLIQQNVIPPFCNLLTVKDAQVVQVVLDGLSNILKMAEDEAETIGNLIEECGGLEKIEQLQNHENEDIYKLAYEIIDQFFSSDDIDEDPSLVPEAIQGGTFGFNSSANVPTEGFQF

For the substance Snail (from UniProt O95863), the Kd in data set [1] is 2100 nM; in data set [2] it was 800 nM.
